Molecular target: T1, tumor necrosis factor receptor (TNFR)-associated factor 1, Q13077
T1 chain: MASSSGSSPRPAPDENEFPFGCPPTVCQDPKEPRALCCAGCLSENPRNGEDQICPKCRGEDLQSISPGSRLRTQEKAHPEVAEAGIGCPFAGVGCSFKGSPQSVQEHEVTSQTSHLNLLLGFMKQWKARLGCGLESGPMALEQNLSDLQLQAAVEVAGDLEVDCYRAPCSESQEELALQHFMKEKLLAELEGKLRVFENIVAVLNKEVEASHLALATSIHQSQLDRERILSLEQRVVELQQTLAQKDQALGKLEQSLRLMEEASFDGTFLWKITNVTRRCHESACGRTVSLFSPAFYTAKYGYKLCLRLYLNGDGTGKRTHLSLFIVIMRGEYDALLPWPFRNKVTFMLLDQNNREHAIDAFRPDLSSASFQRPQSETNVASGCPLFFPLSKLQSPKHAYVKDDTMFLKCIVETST

B1: caspase 8 (protein)
chain: MDFSRNLYDIGEQLDSEDLASLKFLSLDYIPQRKQEPIKDALMLFQRLQEKRMLEESNLSFLKELLFRINRLDLLITYLNTRKEEMERELQTPGRAQISAYRVMLYQISEEVSRSELRSFKFLLQEEISKCKLDDDMNLLDIFIEMEKRVILGEGKLDILKRVCAQINKSLLKIINDYEEFSKERSSSLEGSPDEFSNGEELCGVMTISDSPREQDSESQTLDKVYQMKSKPRGYCLIINNHNFAKAREKVPKLHSIRDRNGTHLDAGALTTTFEELHFEIKPHDDCTVEQIYEILKIYQLMDHSNMDCFICCILSHGDKGIIYGTDGQEAPIYELTSQFTGLKCPSLAGKPKVFFIQACQGDNYQKGIPVETDSEEQPYLEMDLSSPQTRYIPDEADFLLGMATVNNCVSYRNPAEGTWYIQSLCQSLRERCPRGDDILTILTEVNYEVSNKDDKKNMGKQMPQPTFTLRKKLVFPSD
- cleavage of TRAF1 to N-terminal TRAF1 (western blot, normal human keratinocytes): The overexpression of TRIF caused caspase 8-dependent cleavage of TRAF1 to release N-terminal TRAF1 (N-TRAF1) (FIG. 14e), which was prevented by caspase 8 inhibitor (FIG. 14f)
